{"source": "the RNAGym collection of RNA variant scans (doi:10.1093/molbev/msab373)", "parents": {"B1": {"name": "Azoarcus group I ribozyme (parent)", "chain": "GUGCCUUGCGCCGGGAAACCACGCAAGGGAUGGUGUCAAAUUCGGCGAAACCUAAGCGCCCGCCCGGGCGUAUGGCAACGCCGAGCCAAGCUUCGGCGCCUGCGCCGAUGAAGGUGUAGAGACUAGACGGCACCCACCUAAGGCAAACGCUAUGGUGAAGGCAUAGUCCAGGGAGUGGCGAAAGUCACACAAACCGG"}}, "data": [{"variants_of": "B1", "experiment": "reverse-splicing fitness (ratio to wild type); higher = more active; in vitro selection; Mg2+ level not given", "procedure,_shortened": "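An in vitro group I ribozyme library with randomized positions was T7-transcribed and gel-purified. In triplicate, 10 pmol RNA in EPPS pH 7.5 was reacted with 50 pmoles of a 30-nt RNA substrate for 1 h at 37 °C across several added MgCl2 levels (1–48 mM), then stopped with EDTA. Products were reverse transcribed from a substrate-complementary primer, PCR-amplified and sequenced (HiSeq 4000). Fitness is a variant's read proportion after selection over that before, normalised to wild type.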", "values": [{"variant": "GUGCCUUGCGCCGGGAAACCACGCAAGGGAUGGUGUCAAAUUCGGCGAAACCUAAGCGCCCGCCCGGGCGUAUGGCAACGCGGAGCCAAGCUUCGGCGCCUGCGCCGAUGAAGGUGUAGUGACUAGACGGCACCCACCUAAGGCAAACGAUAUGGUGAAGGCAUAGUCCAGGGAGUGGCGAAAGUCACACAAACCGG", "reverse-splicing fitness": 0.0159}, {"variant": "GUGCCUUGCGCCGGGAAACCACGCAAGGGAUGGUGUCAAAUUCGGCGAAACCUAAGCGCCCGCCCGGGCGUAUGGCAACGCGGAGCCAAGCUUCGGCGCCUGCGCCGAUGAAGGUGUAGUGACUAGACGGCACCCACCUAAGGCAAACGGUAUGGUGAAGGCAUAGUCCAGGGAGUGGCGAAAGUCACACAAACCGG", "reverse-splicing fitness": 0.0146}, {"variant": "GUGCCUUGCGCCGGGAAACCACGCAAGGGAUGGUGUCAAAUUCGGCGAAACCUAAGCGCCCGCCCGGGCGUAUGGCAACGCGGAGCCAAGCUUCGGCGCCUGCGCCGAUGAAGGUGUAGUGACUAGACGGCACCCACCUAAGGCAAACGAUAUGGUGAAGGCAUAGUCGAGGGAGAGGCGAAAGUCACACAAACCGG", "reverse-splicing fitness": 0.00631}, {"variant": "GUGCCUUGCGCCGGGAAACCACGCAAGGGAUGGUGUCAAAUUCGGCGAAACCUAAGCGCCCGCCCGGGCGUAUGGCAACGCGGAGCCAAGCUUCGGCGCCUGCGCCGAUGAAGGUGUAGUGACUAGACGGCACCCACCUAAGGCAAACGAUAUGGUGAAGGCAUAGUCGAGGGAGCGGCGAAAGUCACACAAACCGG", "reverse-splicing fitness": 0.00368}, {"variant": "GUGCCUUGCGCCGGGAAACCACGCAAGGGAUGGUGUCAAAUUCGGCGAAACCUAAGCGCCCGCCCGGGCGUAUGGCAACGCGGAGCCAAGCUUCGGCGCCUGCGCCGAUGAAGGUGUAGUGACUAGACGGCACCCACCUAAGGCAAACGAUAUGGUGAAGGCAUAGUCGAGGGAGGGGCGAAAGUCACACAAACCGG", "reverse-splicing fitness": 0.00199}, {"variant": "GUGCCUUGCGCCGGGAAACCACGCAAGGGAUGGUGUCAAAUUCGGCGAAACCUAAGCGCCCGCCCGGGCGUAUGGCAACGCGGAGCCAAGCUUCGGCGCCUGCGCCGAUGAAGGUGUAGUGACUAGACGGCACCCACCUAAGGCAAACGGUAUGGUGAAGGCAUAGUCGAGGGAGCGGCGAAAGUCACACAAACCGG", "reverse-splicing fitness": 0.00277}, {"variant": "GUGCCUUGCGCCGGGAAACCACGCAAGGGAUGGUGUCAAAUUCGGCGAAACCUAAGCGCCCGCCCGGGCGUAUGGCAACGCGGAGCCAAGCUUCGGCGCCUGCGCCGAUGAAGGUGUAGUGACUAGACGGCACCCACCUAAGGCAAACGGUAUGGUGAAGGCAUAGUCGAGGGAGAGGCGAAAGUCACACAAACCGG", "reverse-splicing fitness": 0.00454}, {"variant": "GUGCCUUGCGCCGGGAAACCACGCAAGGGAUGGUGUCAAAUUCGGCGAAACCUAAGCGCCCGCCCGGGCGUAUGGCAACGCGGAGCCAAGCUUCGGCGCCUGCGCCGAUGAAGGUGUAGUGACUAGACGGCACCCACCUAAGGCAAACGGUAUGGUGAAGGCAUAGUCGAGGGAGGGGCGAAAGUCACACAAACCGG", "reverse-splicing fitness": 0.00218}, {"variant": "GUGCCUUGCGCCGGGAAACCACGCAAGGGAUGGUGUCAAAUUCGGCGAAACCUAAGCGCCCGCCCGGGCGUAUGGCAACGCGGAGCCAAGCUUCGGCGCCUGCGCCGAUGAAGGUGUAGUGACUAGACGGCACCCACCUAAGGCUAACGCUAUGGUGAAGGCAUAGUCCAGGGAGGGGCGAAAGUCACACAAACCGG", "reverse-splicing fitness": 0.02}, {"variant": "GUGCCUUGCGCCGGGAAACCACGCAAGGGAUGGUGUCAAAUUCGGCGAAACCUAAGCGCCCGCCCGGGCGUAUGGCAACGCGGAGCCAAGCUUCGGCGCCUGCGCCGAUGAAGGUGUAGUGACUAGACGGCACCCACCUAAGGCAAACGGUAUGGUGAAGGCAUAGUCUAGGGAGCGGCGAAAGUCACACAAACCGG", "reverse-splicing fitness": 0.00347}, {"variant": "GUGCCUUGCGCCGGGAAACCACGCAAGGGAUGGUGUCAAAUUCGGCGAAACCUAAGCGCCCGCCCGGGCGUAUGGCAACGCGGAGCCAAGCUUCGGCGCCUGCGCCGAUGAAGGUGUAGUGACUAGACGGCACCCACCUAAGGCAAACGGUAUGGUGAAGGCAUAGUCUAGGGAGGGGCGAAAGUCACACAAACCGG", "reverse-splicing fitness": 0.0022}, {"variant": "GUGCCUUGCGCCGGGAAACCACGCAAGGGAUGGUGUCAAAUUCGGCGAAACCUAAGCGCCCGCCCGGGCGUAUGGCAACGCGGAGCCAAGCUUCGGCGCCUGCGCCGAUGAAGGUGUAGUGACUAGACGGCACCCACCUAAGGCAAACGGUAUGGUGAAGGCAUAGUCUAGGGAGAGGCGAAAGUCACACAAACCGG", "reverse-splicing fitness": 0.00369}, {"variant": "GUGCCUUGCGCCGGGAAACCACGCAAGGGAUGGUGUCAAAUUCGGCGAAACCUAAGCGCCCGCCCGGGCGUAUGGCAACGCGGAGCCAAGCUUCGGCGCCUGCGCCGAUGAAGGUGUAGUGACUAGACGGCACCCACCUAAGGCAAACGAUAUGGUGAAGGCAUAGUCAAGGGAGUGGCGAAAGUCACACAAACCGG", "reverse-splicing fitness": 0.00401}, {"variant": "GUGCCUUGCGCCGGGAAACCACGCAAGGGAUGGUGUCAAAUUCGGCGAAACCUAAGCGCCCGCCCGGGCGUAUGGCAACGCGGAGCCAAGCUUCGGCGCCUGCGCCGAUGAAGGUGUAGUGACUAGACGGCACCCACCUAAGGCAAACGAUAUGGUGAAGGCAUAGUCGAGGGAGUGGCGAAAGUCACACAAACCGG", "reverse-splicing fitness": 0.00295}, {"variant": "GUGCCUUGCGCCGGGAAACCACGCAAGGGAUGGUGUCAAAUUCGGCGAAACCUAAGCGCCCGCCCGGGCGUAUGGCAACGCGGAGCCAAGCUUCGGCGCCUGCGCCGAUGAAGGUGUAGUGACUAGACGGCACCCACCUAAGGCAAACGAUAUGGUGAAGGCAUAGUCUAGGGAGUGGCGAAAGUCACACAAACCGG", "reverse-splicing fitness": 0.00426}]}]}
